Measurements as given in patent US20260001937A1, “NOVEL RECOMBINANT FIBRINOGEN VARIANTS FOR FIBRIN SEALANTS FOR SURGICAL WOUND CARE” (Julius-Maximilians-Universität Würzburg, priority 2022, published 2026).

Assays:
thrombin = thrombin (Homo sapiens, UniProt P00734); assay: Thrombin-catalyzed fibrin polymerization, turbidity at 350 nm; format: biochemical; settings: fibrinogen 0.1 mg/mL, thrombin 0.05 U/mL
Method: FIG. 26: Thrombin-catalyzed fibrin polymerization. Polymerization of fibrinogen (0.1 mg/mL) was initiated by the addition of thrombin (0.05 U/mL), factor XIIIa (Fibrogammin®, CSL Behring) (50 mU/ml) as well as CaCl2 (10 mM). The change in turbidity at 350 nm was followed with time (0-3600 sec). Representative polymerization curves of plasma Fibrinogen (square) and His-rFbgH433R435 (triangle).
Turbidity experiments were conducted on a Tecan Infinite M Plex plate reader at 37° C. A 96-well plate with a final volume of 100 μl per well was used and was experiments were performed in triplicate. The Thrombin-catalyzed fibrin polymerization of fibrinogen (0.1 mg/mL) was initiated by the addition of thrombin (0.05 U/mL), factor Xllla (Fibrogammin®, CSL Behring; 50 mU/ml) as well as CaCl2 (10 mM). The change in turbidity at 350 nm was followed over time (0-3600 sec).

ExpiCHO-S cells = assay: α-chain degradation of recombinant fibrinogen during CHO cell expression (SDS-PAGE, in-gel digest MS); format: cell-based, Chinese hamster; settings: no protease inhibitor added
Method: Fibrinogen variants were expressed according to the user manual (Thermo Scientific, Waltham, USA). Briefly, ExpiCHO-S™ cells (Thermo Scientific, Waltham, USA) were cultured to a final density of 10×10^6 cells/mL. Plasmids encoding for the different fibrinogen variants (0.8 μg/mL of culture) as well as ExpiFectamine™ CHO (Thermo Scientific, Waltham, USA) were diluted in 5 mL of cold OptiPro™ medium (Thermo Scientific, Waltham, USA) and incubated for 5 min at RT. The ExpiFectamine™ CHO/DNA complex was transferred to the shaker flask and incubated at 37° C. and 8% CO2 and 130 rpm. After 24 h of incubation, ExpiFectamine™ CHO Enhancer and ExpiFectamine™ CHO Feed (Thermo Scientific, Waltham, USA) were added to the culture flask. The culture flasks were transferred to an incubator at 32° C. and 8% CO2 with shaking at 130 rpm. This step was repeated after 4 days of incubation. After another incubation step of up to 7 days at 32° C. and 8% CO2 and 130 rpm cells were harvested and centrifuged at 3000 rpm for 15 minutes. […]
Purified proteins and conjugates were analyzed using Tris-glycine SDS-PAGE either with or without the addition of β-mercaptoethanol as described before.58 Gels were stained with Coomassie Brilliant Blue G250 and documented using FluorChem FC2 imaging system (Protein Simple, Santa Clara, USA). […]

FXIIIa = target: T1, FXIIIa (Homo sapiens, UniProt P00488); assay: FXIIIa-catalyzed cross-linking of fibrin (SDS-PAGE, reducing); format: biochemical
T1 construct: purchased CSL Behring Fibrogammin
T1 sequence (P00488 39-732 limits assumed): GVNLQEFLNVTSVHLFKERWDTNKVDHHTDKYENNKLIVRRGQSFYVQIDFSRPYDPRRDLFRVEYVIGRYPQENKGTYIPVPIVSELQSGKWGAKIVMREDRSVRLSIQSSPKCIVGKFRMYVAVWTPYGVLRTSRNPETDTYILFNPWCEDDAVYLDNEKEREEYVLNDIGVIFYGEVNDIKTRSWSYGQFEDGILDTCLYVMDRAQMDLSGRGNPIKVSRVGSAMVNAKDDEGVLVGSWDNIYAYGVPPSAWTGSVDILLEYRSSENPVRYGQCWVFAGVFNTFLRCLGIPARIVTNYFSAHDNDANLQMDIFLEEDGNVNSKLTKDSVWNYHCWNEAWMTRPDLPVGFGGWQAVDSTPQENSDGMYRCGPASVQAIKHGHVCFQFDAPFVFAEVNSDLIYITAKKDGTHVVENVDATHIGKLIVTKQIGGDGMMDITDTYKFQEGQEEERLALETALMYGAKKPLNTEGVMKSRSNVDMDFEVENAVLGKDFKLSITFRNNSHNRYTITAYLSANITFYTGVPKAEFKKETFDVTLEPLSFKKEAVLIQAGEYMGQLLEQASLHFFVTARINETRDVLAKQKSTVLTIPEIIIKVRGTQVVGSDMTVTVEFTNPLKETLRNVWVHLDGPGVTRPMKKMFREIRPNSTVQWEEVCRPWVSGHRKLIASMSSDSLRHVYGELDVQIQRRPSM
Method: FIG. 27: FXIIIa-catalyzed cross-linking of fibrinogen. Crosslinking of His-rFbgH433R435 by rFXIIIa was examined with SDS-PAGE, under reducing conditions. Fibrinogen (0.1 mg/mL) was mixed with FXIIIa (0.5 mU/mL) and thrombin (0.05 U/mL), and the reaction was incubated for the specified time at 37° C. The reduced fibrin chains (α, β, γ, cross-linked γ-γ dimer) are indicated on the right side of the gel.
To examine cross-linking of fibrin, fibrinogen (0.1 mg/mL) was incubated at 37° C. with FXIIIa ([…]) and human-thrombin (final concentration, 0.05 U/mL) in Tris-buffer and CaCl2 (10 mM). The reactions were stopped at various times by addition of an equal volume of sodium dodecyl sulfate (SDS) sample buffer with 2-mercaptoethanol and incubation (5 min) at 90° C. Samples were separated on SDS-polyacrylamide gel electrophoresis (SDS-PAGE) and stained with Coomassie brilliant blue.

thrombin-induced fibrin polymerization compared with control (pFbg) (thrombin; factor XIIIa 50 mU/ml, CaCl2 10 mM, 37° C., 0-3600 sec): slightly reduced | absorption in fibrin polymerization compared with control (pFbg) (thrombin; turbidity 350 nm): comparable | lag time of fibrin polymerization compared with control (pFbg) (thrombin; turbidity 350 nm): similar | formation of functional fibrin gels (FXIIIa; conclusion from polymerization and cross-linking experiments): forms functional fibrin gels | incubation time after which cross-linked γ-γ-dimer bands were visible (FXIIIa; fibrinogen 0.1 mg/mL, FXIIIa 0.5 U/mL, thrombin 0.05 U/mL, CaCl2 10 mM, 37° C.): 5 min
Substance: His-rFbgH433R435: Aα, Bβ- and γ-chain fibrinogen; α-chain L433H, T435R (SEQ ID 79), γ-chain K88H, K111H, K382H, K399H (SEQ ID 80)
α-chain degradation during CHO cell protein expression (ExpiCHO-S cells): not detectable
